These are literature values, as cited in paper PMC9659328.

For this series, the target named is thrombin (Homo sapiens) (UniProt P00734).

For thrombomodulin (from UniProt P07204), the Kd is 2 nM.

What is called Kd is the equilibrium constant for the complex coming apart.
